assay: Thermostability of neurotensin receptor (NTR) mutants (3H-neurotensin binding); type: physicochemical; conditions: Ligand(+) format
Description: FIG. 12 Flow chart showing the two different assay formats of ligand (+) and ligand (−) used to determine receptor thermostablity.
3. Mutants tested for thermostability by heating in the absence of the agonist were re-tested using a slightly different assay where the mutants were heated in the presence of ^3H-neurotensin (Ligand(+) format in FIG. 12). […] All of these also have increased thermostability. • 5. Preferred combinations are • a. Nag7m F358A+A86L+1260A+F342A Tm 51° C. (neurotensin bound) • b. Nag7n F358A+H103A+1260A+F342A Tm 51° C. (neurotensin bound) • Wildtype NTR has a Tm of 35° C. with neurotensin bound.

Row | Molecule | thermostability, heated in the presence of 3H-neurotensin
1 | M250A: NTR point mutant (protein, UniProt P20789 1-424, looked up, variant M250A) Neurotensin receptor type 1: MHLNSSVPQGTPGEPDAQPFSGPQSEMEATFLALSLSNGSGNTSESDTAGPNSDLDVNTDIYSKVLVTAIYLALFVVGTVGNSVTAFTLARKKSLQSLQSTVHYHLGSLALSDLLILLLAMPVELYNFIWVHHPWAFGDAGCRGYYFLRDACTYATALNVASLSVERYLAICHPFKAKTLMSRSRTKKFISAIWLASALLAIPMLFTMGLQNRSGDGTHPGGLVCTPIVDTATVKVVIQVNTFMSFLFPALVISILNTVIANKLTVMVHQAAEQGRVCTVGTHNGLEHSTFNMTIEPGRVQALRHGVLVLRAVVIAFVVCWLPYHVRRLMFCYISDEQWTTFLFDFYHYFYMLTNALFYVSSAINPILYNLVSANFRQVFLSTLACLCPGWRHRRKKRPTFSRKPNSMSSNHAFSTSATRETLY | improved thermostability
2 | 1253A: NTR point mutant (Ile 253) (protein, UniProt P20789 1-424, looked up, variant I253A) Neurotensin receptor type 1: MHLNSSVPQGTPGEPDAQPFSGPQSEMEATFLALSLSNGSGNTSESDTAGPNSDLDVNTDIYSKVLVTAIYLALFVVGTVGNSVTAFTLARKKSLQSLQSTVHYHLGSLALSDLLILLLAMPVELYNFIWVHHPWAFGDAGCRGYYFLRDACTYATALNVASLSVERYLAICHPFKAKTLMSRSRTKKFISAIWLASALLAIPMLFTMGLQNRSGDGTHPGGLVCTPIVDTATVKVVIQVNTFMSFLFPMLVASILNTVIANKLTVMVHQAAEQGRVCTVGTHNGLEHSTFNMTIEPGRVQALRHGVLVLRAVVIAFVVCWLPYHVRRLMFCYISDEQWTTFLFDFYHYFYMLTNALFYVSSAINPILYNLVSANFRQVFLSTLACLCPGWRHRRKKRPTFSRKPNSMSSNHAFSTSATRETLY | improved thermostability
3 | A177L: NTR point mutant (protein, UniProt P20789 1-424, looked up, variant A177L) Neurotensin receptor type 1: MHLNSSVPQGTPGEPDAQPFSGPQSEMEATFLALSLSNGSGNTSESDTAGPNSDLDVNTDIYSKVLVTAIYLALFVVGTVGNSVTAFTLARKKSLQSLQSTVHYHLGSLALSDLLILLLAMPVELYNFIWVHHPWAFGDAGCRGYYFLRDACTYATALNVASLSVERYLAICHPFKLKTLMSRSRTKKFISAIWLASALLAIPMLFTMGLQNRSGDGTHPGGLVCTPIVDTATVKVVIQVNTFMSFLFPMLVISILNTVIANKLTVMVHQAAEQGRVCTVGTHNGLEHSTFNMTIEPGRVQALRHGVLVLRAVVIAFVVCWLPYHVRRLMFCYISDEQWTTFLFDFYHYFYMLTNALFYVSSAINPILYNLVSANFRQVFLSTLACLCPGWRHRRKKRPTFSRKPNSMSSNHAFSTSATRETLY | improved thermostability
4 | R183A: NTR point mutant (protein, UniProt P20789 1-424, looked up, variant R183A) Neurotensin receptor type 1: MHLNSSVPQGTPGEPDAQPFSGPQSEMEATFLALSLSNGSGNTSESDTAGPNSDLDVNTDIYSKVLVTAIYLALFVVGTVGNSVTAFTLARKKSLQSLQSTVHYHLGSLALSDLLILLLAMPVELYNFIWVHHPWAFGDAGCRGYYFLRDACTYATALNVASLSVERYLAICHPFKAKTLMSASRTKKFISAIWLASALLAIPMLFTMGLQNRSGDGTHPGGLVCTPIVDTATVKVVIQVNTFMSFLFPMLVISILNTVIANKLTVMVHQAAEQGRVCTVGTHNGLEHSTFNMTIEPGRVQALRHGVLVLRAVVIAFVVCWLPYHVRRLMFCYISDEQWTTFLFDFYHYFYMLTNALFYVSSAINPILYNLVSANFRQVFLSTLACLCPGWRHRRKKRPTFSRKPNSMSSNHAFSTSATRETLY | improved thermostability
5 | 1260A: NTR point mutant (Ile 260) (protein, UniProt P20789 1-424, looked up, variant I260A) Neurotensin receptor type 1: MHLNSSVPQGTPGEPDAQPFSGPQSEMEATFLALSLSNGSGNTSESDTAGPNSDLDVNTDIYSKVLVTAIYLALFVVGTVGNSVTAFTLARKKSLQSLQSTVHYHLGSLALSDLLILLLAMPVELYNFIWVHHPWAFGDAGCRGYYFLRDACTYATALNVASLSVERYLAICHPFKAKTLMSRSRTKKFISAIWLASALLAIPMLFTMGLQNRSGDGTHPGGLVCTPIVDTATVKVVIQVNTFMSFLFPMLVISILNTVAANKLTVMVHQAAEQGRVCTVGTHNGLEHSTFNMTIEPGRVQALRHGVLVLRAVVIAFVVCWLPYHVRRLMFCYISDEQWTTFLFDFYHYFYMLTNALFYVSSAINPILYNLVSANFRQVFLSTLACLCPGWRHRRKKRPTFSRKPNSMSSNHAFSTSATRETLY | improved thermostability
6 | T294A: NTR point mutant (protein, UniProt P20789 1-424, looked up, variant T294A) Neurotensin receptor type 1: MHLNSSVPQGTPGEPDAQPFSGPQSEMEATFLALSLSNGSGNTSESDTAGPNSDLDVNTDIYSKVLVTAIYLALFVVGTVGNSVTAFTLARKKSLQSLQSTVHYHLGSLALSDLLILLLAMPVELYNFIWVHHPWAFGDAGCRGYYFLRDACTYATALNVASLSVERYLAICHPFKAKTLMSRSRTKKFISAIWLASALLAIPMLFTMGLQNRSGDGTHPGGLVCTPIVDTATVKVVIQVNTFMSFLFPMLVISILNTVIANKLTVMVHQAAEQGRVCTVGTHNGLEHSTFNMAIEPGRVQALRHGVLVLRAVVIAFVVCWLPYHVRRLMFCYISDEQWTTFLFDFYHYFYMLTNALFYVSSAINPILYNLVSANFRQVFLSTLACLCPGWRHRRKKRPTFSRKPNSMSSNHAFSTSATRETLY | improved thermostability
7 | G306A: NTR point mutant (protein, UniProt P20789 1-424, looked up, variant G306A) Neurotensin receptor type 1: MHLNSSVPQGTPGEPDAQPFSGPQSEMEATFLALSLSNGSGNTSESDTAGPNSDLDVNTDIYSKVLVTAIYLALFVVGTVGNSVTAFTLARKKSLQSLQSTVHYHLGSLALSDLLILLLAMPVELYNFIWVHHPWAFGDAGCRGYYFLRDACTYATALNVASLSVERYLAICHPFKAKTLMSRSRTKKFISAIWLASALLAIPMLFTMGLQNRSGDGTHPGGLVCTPIVDTATVKVVIQVNTFMSFLFPMLVISILNTVIANKLTVMVHQAAEQGRVCTVGTHNGLEHSTFNMTIEPGRVQALRHAVLVLRAVVIAFVVCWLPYHVRRLMFCYISDEQWTTFLFDFYHYFYMLTNALFYVSSAINPILYNLVSANFRQVFLSTLACLCPGWRHRRKKRPTFSRKPNSMSSNHAFSTSATRETLY | improved thermostability
8 | L308A: NTR point mutant (protein, UniProt P20789 1-424, looked up, variant L308A) Neurotensin receptor type 1: MHLNSSVPQGTPGEPDAQPFSGPQSEMEATFLALSLSNGSGNTSESDTAGPNSDLDVNTDIYSKVLVTAIYLALFVVGTVGNSVTAFTLARKKSLQSLQSTVHYHLGSLALSDLLILLLAMPVELYNFIWVHHPWAFGDAGCRGYYFLRDACTYATALNVASLSVERYLAICHPFKAKTLMSRSRTKKFISAIWLASALLAIPMLFTMGLQNRSGDGTHPGGLVCTPIVDTATVKVVIQVNTFMSFLFPMLVISILNTVIANKLTVMVHQAAEQGRVCTVGTHNGLEHSTFNMTIEPGRVQALRHGVAVLRAVVIAFVVCWLPYHVRRLMFCYISDEQWTTFLFDFYHYFYMLTNALFYVSSAINPILYNLVSANFRQVFLSTLACLCPGWRHRRKKRPTFSRKPNSMSSNHAFSTSATRETLY | improved thermostability
9 | V309A: NTR point mutant (protein, UniProt P20789 1-424, looked up, variant V309A) Neurotensin receptor type 1: MHLNSSVPQGTPGEPDAQPFSGPQSEMEATFLALSLSNGSGNTSESDTAGPNSDLDVNTDIYSKVLVTAIYLALFVVGTVGNSVTAFTLARKKSLQSLQSTVHYHLGSLALSDLLILLLAMPVELYNFIWVHHPWAFGDAGCRGYYFLRDACTYATALNVASLSVERYLAICHPFKAKTLMSRSRTKKFISAIWLASALLAIPMLFTMGLQNRSGDGTHPGGLVCTPIVDTATVKVVIQVNTFMSFLFPMLVISILNTVIANKLTVMVHQAAEQGRVCTVGTHNGLEHSTFNMTIEPGRVQALRHGVLALRAVVIAFVVCWLPYHVRRLMFCYISDEQWTTFLFDFYHYFYMLTNALFYVSSAINPILYNLVSANFRQVFLSTLACLCPGWRHRRKKRPTFSRKPNSMSSNHAFSTSATRETLY | improved thermostability

same assay, conditions: heated in the absence of the agonist

Row | Molecule | thermostability, 3H-neurotensin (agonist) binding after the heating step
10 | K397A: NTR point mutant (protein, UniProt P20789 1-424, looked up, variant K397A) Neurotensin receptor type 1: MHLNSSVPQGTPGEPDAQPFSGPQSEMEATFLALSLSNGSGNTSESDTAGPNSDLDVNTDIYSKVLVTAIYLALFVVGTVGNSVTAFTLARKKSLQSLQSTVHYHLGSLALSDLLILLLAMPVELYNFIWVHHPWAFGDAGCRGYYFLRDACTYATALNVASLSVERYLAICHPFKAKTLMSRSRTKKFISAIWLASALLAIPMLFTMGLQNRSGDGTHPGGLVCTPIVDTATVKVVIQVNTFMSFLFPMLVISILNTVIANKLTVMVHQAAEQGRVCTVGTHNGLEHSTFNMTIEPGRVQALRHGVLVLRAVVIAFVVCWLPYHVRRLMFCYISDEQWTTFLFDFYHYFYMLTNALFYVSSAINPILYNLVSANFRQVFLSTLACLCPGWRHRRKARPTFSRKPNSMSSNHAFSTSATRETLY | small but significant increase in thermostability
11 | H393A: NTR point mutant (protein, UniProt P20789 1-424, looked up, variant H393A) Neurotensin receptor type 1: MHLNSSVPQGTPGEPDAQPFSGPQSEMEATFLALSLSNGSGNTSESDTAGPNSDLDVNTDIYSKVLVTAIYLALFVVGTVGNSVTAFTLARKKSLQSLQSTVHYHLGSLALSDLLILLLAMPVELYNFIWVHHPWAFGDAGCRGYYFLRDACTYATALNVASLSVERYLAICHPFKAKTLMSRSRTKKFISAIWLASALLAIPMLFTMGLQNRSGDGTHPGGLVCTPIVDTATVKVVIQVNTFMSFLFPMLVISILNTVIANKLTVMVHQAAEQGRVCTVGTHNGLEHSTFNMTIEPGRVQALRHGVLVLRAVVIAFVVCWLPYHVRRLMFCYISDEQWTTFLFDFYHYFYMLTNALFYVSSAINPILYNLVSANFRQVFLSTLACLCPGWRARRKKRPTFSRKPNSMSSNHAFSTSATRETLY | small but significant increase in thermostability

Reference: US8748182B2, “Mutant proteins and methods for producing them” (Heptares Therapeutics Limited, priority 2007, dated 2014)
